# Experiments:
# [1] = target: recombinant human GREM1 (hGREM1-His; C-terminal 10His tagged, R&D, #5190-GR) (human) (UniProt O60565); test: BLI Octet, captured mAb, 100 nM GREM1
# [2] = target: recombinant human GREM1 (hGREM1-His; C-terminal 10His tagged, R&D, #5190-GR) (human) (UniProt O60565); test: cell-based or functional assay
# [3] = target: recombinant human GREM1 (hGREM1-His; C-terminal 10His tagged, R&D, #5190-GR) (human) (UniProt O60565); test: BLI Octet, captured mAb, 100 nM GREM1 without vs with 5 uM heparin
# [4] = target: recombinant human GREM1 (hGREM1-His; C-terminal 10His tagged, R&D, #5190-GR) (human) (UniProt O60565); test: BLI Octet, captured mAb, 100 nM GREM1 + 5 uM heparin
# Sequence of recombinant human GREM1 (hGREM1-His; C-terminal 10His tagged, R&D, #5190-GR) (human) (O60565 other isoform, or with tags, fused parts or gaps limits assumed, form in doubt): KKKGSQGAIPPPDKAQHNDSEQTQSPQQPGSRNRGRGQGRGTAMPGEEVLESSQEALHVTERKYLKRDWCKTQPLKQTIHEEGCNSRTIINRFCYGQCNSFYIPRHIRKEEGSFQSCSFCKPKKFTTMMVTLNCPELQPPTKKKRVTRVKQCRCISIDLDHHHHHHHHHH
Binding Signal with 30 sec Association (nm) [1] [nm],Binding Signal with 300 sec Association (nm) [1] [nm],"IC50 [M], W-20-17/BRE-luc luciferase bioassay, 100 pM hBMP4 and 10 nM hGREM1-His [2]",Reduction in Signal from Heparin at 30 sec [3] [nm],Reduction in Signal from Heparin at 300 sec [3] [nm],Binding Signal with 30 sec Association (nm) [4] [nm],Binding Signal with 300 sec Association (nm) [4] [nm],"hGREM1-His Inhibition IC50, M; W-20-17 cell differentiation assay (alkaline phosphatase) [2] [nM]",Binder
0.13,0.58,49,0,0,0.13,0.58,,"H4H2780N (antibody, human IgG4, V domains shown) VH: EVQLVESGGGLVKPGGSLRLSCAASGFTFSTYSMNWVRQAPGKGLEWVSSISSGSSYIYYTDSVKGRFTISRDNAKNSLYLQMNSLRAEDTAVYYCARFGSYYYFGFDVWGQGTTVTVSS VL: DIQMTQSPSSLSASVGDRVTITCRASQGISNYLAWYQQKPGKVPKLLIFSASTLQSGVPSRFSGSGSGPDFTLTVSSLQPEDVATYYCQKYNSAPFAFGPGTKVDIK"
0.2,0.49,9.5e-10 M,0.05,0,0.15,0.49,4.4,"H4H2892N (antibody, human IgG4, V domains shown) VH: QVQLVESGGGVVQPGRSLRLSCAASGFTFSSYGIHWVRQAPGKGLEWVAILWYDGSNKYYADSVKGRFTISRDNSKTTLYLQMNSLRAEDTAVYYCARENYNDLNFDLWGRGTLVTVSS VL: DIQLTQSPSFLSASVGDRVTITCWASQGISSYLAWYQHKPGKAPKLLIYAASTLQSGVPSRFSGSGSGIEFTLTISSLQPEDFATYYCQQLKSYPPWTFGQGTKVEIR"
0.29,0.47,1.3e-09 M,0.28,0.18,0.01,0.29,5.6,"H4H2783N2 (antibody, human IgG4, V domains shown) VH: EVQLLESGGGLVQPGGSLRLSCAASGFTFSSYVMNWVRQAPGKGLEWVSAISGSGGSTYYADSVKGRSTISRDNSKNTLYLQMNSLRAEDTAIYYCAKGDIAAIVFDAFDIWGQGTVVTVSS VL: DIQMTQSPSSLSASVGDRVTITCQASQDISSALNWYQHKPGKAPKLLIYDASYLETGVPSRFSGSGSGTDFTFTISSLQPEDIATYYCQQYDNLPYTFGQGTKLEIK"
0.2,0.46,1.2e-09 M,0.15,0.02,0.05,0.44,5.4,"H4H2889N (antibody, human IgG4, V domains shown) VH: QVQLQESGPGLVKPSETLSLTCTVSGGSISNSYWSWIRQPPGKGLEWIGYIYYSGNTNYNPSLKSRVTISVDTSKNQFSLKLSSVTAADTAVYYCARVNDYSNYDSYYYGMDVWGQGTTVTVSS VL: AIQMTQSPSSLSASVGDRVTITCRASQGIRNDLGWYQQKPGKAPKLLIYAASSLQSGVPSRFSGSGSGTDFTLTISSLQPEDFATYYCLQDYNYPPTFGQGTKVDIK"
0.15,0.6,,0.01,0.08,0.14,0.52,,"H4H6269P (antibody, human IgG4, V domains shown) VH: QVQLQESGPGLVKPSQTLSLTCTVSGGSISSGGYYWTWIRQHPGKGLEWIGYIYYSGSTYYNPSLKSRVTMSVDTSKNQFSLKLSSVTAADTAVYYCARLLDFDYWGQGTLVTVSS VL: AIQMTQSPSSLSASVGDRVTITCRASQGIRNDLGWYQQKPGKAPKLLIYAASSLQSGVPSRFSGSGSGRDFTLTISSLQPEDFASYYCLQDHNYPLTFGGGTKVEIK"

# Source: US20230192831A1
